Results published in patent publication US20190112392A1.
Substitutions are numbered along the chain they refer to.

B1: T017000051 (bispecific antibody)
chain: EVQLVESGGGLVQPGGSLRLSCTFSGGTFSSYTMGWFRQAPGKEREFVAEVRWGGVTTYSNSLKDRFSISEDSVKNAVYLQMNSLKPEDTAVYYCAAVRQMYMTVVPDYWGQGTLVTVSSGGGGSGGGGSGGGGSGGGGSGGGGSGGGGSGGGGSEVQLVESGGGLVQPGGSLRLSCAASGEIGRINFYRWYRQAPGNQREVVATITIADKTDYADSAKGRFTISRDESRNMVYLQMSSLKPEDTAVYFCHAGSRLYPYDYWGQGTLVTVSSGAADYKDHDGDYKDHDIDYKDDDDKGAAHHHHHH
B2: T017000031 (bispecific antibody)
chain: EVQLVESGGGLVQPGGSLRLSCITSGETFKINIWGWYRQAPGKQRELVASLTIGGATNYADSVKGRFTISEDSAKNTVYLQMNSLKPEDTAVYFCNAKSRLYPYDYWGQGTLVTVSSGGGGSGGGGSGGGGSGGGGSGGGGSGGGGSGGGGSEVQLVESGGGLVQPGGSLRLSCTFSGGTFSSYTMGWFRQAPGKEREFVAEVRWGGVTTYSNSLKDRFSISEDSVKNAVYLQMNSLKPEDTAVYYCAAVRQMYMTVVPDYWGQGTLVTVSSGAADYKDHDGDYKDHDIDYKDDDDKGAAHHHHHH
B3: T017000107 (protein)
chain: EVQLVESGGGLVQAGGSLRLSCAASGRTFSSYVMGWFRQATGKEREFVATIAWDSGSTYYADSVKGRFTISRDNAKNTVHLQMNSLKPEDTAVYYCAASYNVYYNNYYYPISRDEYDYWGQGTLVTVSSGGGGSGGGGSGGGGSGGGGSGGGGSGGGGSGGGGSEVQLVESGGGSVQAGGSLRLSCAASGDTYGSYWMGWFRQAPGKEREGVAAINRGGGYTVYADSVKGRFTISRDTAKNTVYLQMNSLRPDDTADYYCAASGVLGGLHEDWFNYWGQGTLVTVSSGGGGSGGGGSGGGGSGGGGSGGGGSGGGGSGGGGSEVQLVESGGGLVQPGGSLRLSCVASGDVHKINFLGWYRQAPGKEREKVAHISIGDQTDYADSAKGRFTISRDESKNMVYLQMNSLKPEDTAVYFCRAFSRIYPYDYWGQGTLVTVSSGAADYKDHDGDYKDHDIDYKDDDDKGAAHHHHHH
B4: T0170061G01 (VHH, not shown: small tags and cut ends)
VHH: EVQLVESGGGLVQPGGSLRLSCAASGEIGRINFYRWYRQAPGNQREVVATITIADKTDYADSAKGRFTISRDESRNMVYLQMSSLKPEDTAVYFCHAGSRLYPYDYWGQGTQVTVSS
B5: T017000055 (bispecific antibody)
chain: EVQLVESGGGLVQPGGSLRLSCTFSGGTFSSYTMGWFRQAPGKEREFVAEVRWGGVTTYSNSLKDRFSISEDSVKNAVYLQMNSLKPEDTAVYYCAAVRQMYMTVVPDYWGQGTLVTVSSGGGGSGGGGSGGGGSGGGGSGGGGSGGGGSGGGGSEVQLVESGGGLVQPGGSLRLSCAASGDVHKINILGWYRQAPAKEREMVAHITIGDATDYADSAKGRFTISRDEAKNMVYLQMNSLKPEDTAVYFCRAYSRIYPYNYWGQGTLVTVSSGAADYKDHDGDYKDHDIDYKDDDDKGAAHHHHHH
B6: T017000076 (bispecific antibody)
chain: B5 chain with A178V, I188F, A197G, M202K, T207S, A211Q, A229S, Y253F, N260D
B7: T017000068 (bispecific antibody)
chain: EVQLVESGGGLVQPGGSLRLSCTFSGGTFSSYTMGWFRQAPGKEREFVAEVRWGGVTTYSNSLKDRFSISEDSVKNAVYLQMNSLKPEDTAVYYCAAVRQMYMTVVPDYWGQGTLVTVSSGGGGSGGGGSGGGGSGGGGSGGGGSGGGGSGGGGSEVQLVESGGGLVQPGGSLRLSCITSGETFKINIWGWYRQAPGKQRELVASLTIGGATNYADSVKGRFTISEDSAKNTVYLQMNSLKPEDTAVYFCNAKSRLYPYDYWGQGTLVTVSSGAADYKDHDGDYKDHDIDYKDDDDKGAAHHHHHH
B8: T0170055A02 (VHH, not shown: small tags and cut ends)
VHH: EVQLVESGGGLVQPGGSLRLSCAASGDVHKINILGWYRQAPAKEREMVAHITIGDATDYADSAKGRFTISRDEAKNMVYLQMNSLKPEDTAVYFCRAYSRIYPYNYWGQGTLVTVSS
B9: T0170056G05 (VHH, not shown: small tags and cut ends)
VHH: B8 VHH with A23V, I33F, A42G, M47K, T52S, A56Q, A74S, Y98F, N105D
B10: T017000042 (bispecific antibody)
chain: EVQLVESGGGLVQPGGSLRLSCAASGDVHKINILGWYRQAPAKEREMVAHITIGDATDYADSAKGRFTISRDEAKNMVYLQMNSLKPEDTAVYFCRAYSRIYPYNYWGQGTLVTVSSGGGGSGGGGSGGGGSGGGGSGGGGSGGGGSGGGGSEVQLVESGGGLVQPGGSLRLSCTFSGGTFSSYTMGWFRQAPGKEREFVAEVRWGGVTTYSNSLKDRFSISEDSVKNAVYLQMNSLKPEDTAVYYCAAVRQMYMTVVPDYWGQGTLVTVSSGAADYKDHDGDYKDHDIDYKDDDDKGAAHHHHHH
B11: T017000074 (bispecific antibody)
chain: B10 chain with A23V, I33F, A42G, M47K, T52S, A56Q, A74S, Y98F, N105D
B12: T017000038 (bispecific antibody)
chain: EVQLVESGGGLVQPGGSLRLSCAASGEIGRINFYRWYRQAPGNQREVVATITIADKTDYADSAKGRFTISRDESRNMVYLQMSSLKPEDTAVYFCHAGSRLYPYDYWGQGTLVTVSSGGGGSGGGGSGGGGSGGGGSGGGGSGGGGSGGGGSEVQLVESGGGLVQPGGSLRLSCTFSGGTFSSYTMGWFRQAPGKEREFVAEVRWGGVTTYSNSLKDRFSISEDSVKNAVYLQMNSLKPEDTAVYYCAAVRQMYMTVVPDYWGQGTLVTVSSGAADYKDHDGDYKDHDIDYKDDDDKGAAHHHHHH
B13: T0170068G05 (VHH, not shown: small tags and cut ends)
VHH: VQLVEESGGGLVQPGGSLRLSCITSGETFKINIWGWYRQAPGKQRELVASLTIGGATNYADSVKGRFTISEDSAKNTVYLQMNSLKPEDTAVYFCNAKSRIYPYDYWGRGTQVTVSS

Tests used:
[1] = target: human TCR(2XN9)/CD3 expressed on CHO-K1 cells (human); test: flow cytometry, CHO-K1 human TCR(2XN9)/CD3 cells
[2] = target: EGFR and CEACAM5 co-expressed on LS174T and LoVo cells (UniProt P00533); test: flow cytometry, LoVo cells
[3] = target: EGFR and CEACAM5 co-expressed on LS174T and LoVo cells (UniProt P00533); test: flow cytometry, LS174T cells
[4] = target: EGFR and CEACAM5 co-expressed on LS174T and LoVo cells (UniProt P00533); test: flow cytometry, LS174T cells; LS174T cells
[5] = target: EGFR and CEACAM5 co-expressed on LS174T and LoVo cells (UniProt P00533); test: cell-based or functional assay
[6] = target: soluble recombinant human TCR alpha/beta (2XN9)-zipper protein (human); test: ELISA, coated soluble human TCR(2XN9)-zipper
[7] = target: human TCR(2IAN)/CD3 expressed on HEK293H cells (human); test: flow cytometry, HEK293H human TCR(2IAN)/CD3 cells
[8] = target: soluble recombinant human TCR alpha/beta (2XN9)-zipper protein (human); test: BLI (Octet RED384), immobilized human sTCR(2XN9)-zipper, 1:1 model

Row | Binder | EC50 [1] | MCF at 1 µM [7] | further results
1 | B1 | 460 nM |  | 
2 | B2 | 20 nM |  | 
3 | B3 |  |  | EC50 [2]: 3.2 nM; Top [2]: 88600; Top [3]: 64600; EC50 [4]: 11 nM; IC50, xCELLigence human T cell mediated killing of LS174T cells, E:T 15, 30-40 h [5]: 10 nM; IC50, xCELLigence human T cell mediated killing of LS174T cells, E:T 15, 50-60 h [5]: 5.3 nM; IC50, xCELLigence human T cell mediated killing of LoVo cells, E:T 15, 30-40 h [5]: 0.3 nM; IC50, xCELLigence human T cell mediated killing of LoVo cells, E:T 15, 50-60 h [5]: 0.061 nM
4 | B4 | 31 nM | 10000 MCF | EC50 [6]: 52 nM; EC50 [7]: > 100 nM
5 | B5 | 110 nM |  | 
6 | B6 | 78 nM |  | 
7 | B7 | 190 nM |  | 
8 | B8 |  | 91200 MCF | kon [8]: 49000 M⁻¹ s⁻¹
9 | B9 |  | 86500 MCF | kon [8]: 50000 M⁻¹ s⁻¹
10 | B10 | 17 nM |  | 
11 | B11 | 16 nM |  | 
12 | B12 | 17 nM |  | 
13 | B13 | 12 nM | 31200 MCF | EC50 [6]: 16 nM; EC50 [7]: > 100 nM
